According to patent US20250353912A1 (NEW YORK UNIVERSITY, published 2025):

B1: IBA1-4 (antibody, V domains shown)
VH: EVQLVESGGGLVQPGGSLRLSCAASGFTVSSSSIHWVRQAPGKGLEWVASIYSYSGSTYYADSVKGRFTISADTSKNTAYLQMNSLRAEDTAVYYCARQYSSSYYVWPGMDYWGQGTLVTVSS
VL: DIQMTQSPSSLSASVGDRVTITCRASQSVSSAVAWYQQKPGKAPKLLIYSASSLYSGVPSRFSGSRSGTDFTLTISSLQPEDFATYYCQQYHYWASLITFGQGTKVEIKR
notes: phage-display clone
B2: EO_Q01 (scFv, V domains shown)
VH: EVQLVESGGGLVQPGGSLRLSCAASGFTISSSYIHWVRQAPGKGLEWVAYISPSYGSTSYADSVKGRFTISADTSKNTAYLQMNSLRAEDTAVYYCARELVTMTADYWGQGTLVTVSS
VL: DIQMTQSPSSLSASVGDRVTITCRASQSVSSAVAWYQQKPGKAPKLLIYSASSLYSGVPSRFSGSRSGTDFTLTISSLQPEDFATYYCQQYSHWPITFGQGTKVEIKR
notes: yeast-display scFv
B3: EO_Q18 (scFv, V domains shown)
VH: EVQLVESGGGLVQPGGSLRLSCAASGFTISSSYIHWVRQAPGKGLEWVAYISPSYGSTSYADSVKGRFTISADTSKNTAYLQMNSLRAEDTAVYYCAREYVTMALDYWGQGTLVTVSS
VL: DIQMTQSPSSLSASVGDRVTITCRASQSVSSAVAWYQQKPGKAPKLLIYSASSLYSGVPSRFSGSRSGTDFTLTISSLQPEDFATYYCQQYSAWPETFGQGTKVEIKR
notes: yeast-display scFv
B4: EO_Q20 (scFv, V domains shown)
VH: EVQLVESGGGLVQPGGSLRLSCAASGFTISSSYIHWVRQAPGKGLEWVAYISPSYGSTSYADSVKGRFTISADTSKNTAYLQMNSLRAEDTAVYYCAREEVTMTPDYWGQGTLVTVSS
VL: DIQMTQSPSSLSASVGDRVTITCRASQSVSSAVAWYQQKPGKAPKLLIYSASSLYSGVPSRFSGSRSGTDFTLTISSLQPEDFATYYCQQYSDWPITFGQGTKVEIKR
notes: yeast-display scFv
B5: EO_Q11 (scFv, V domains shown)
VH: EVQLVESGGGLVQPGGSLRLSCAASGFTISSSYIHWVRQAPGKGLEWVAYISPSYGSTSYADSVKGRFTISADTSKNTAYLQMNSLRAEDTAVYYCARELVTMTIDYWGQGTLVTVSS
VL: DIQMTQSPSSLSASVGDRVTITCRASQSVSSAVAWYQQKPGKAPKLLIYSASSLYSGVPSRFSGSRSGTDFTLTISSLQPEDFATYYCQQYSGWPITFGQGTKVEIKR
notes: yeast-display scFv
B6: EO_Q12 (scFv, V domains shown)
VH: EVQLVESGGGLVQPGGSLRLSCAASGFTISSSYIHWVRQAPGKGLEWVAYISPSYGSTSYADSVKGRFTISADTSKNTAYLQMNSLRAEDTAVYYCARELTTMSIDYWGQGTLVTVSS
VL: DIQMTQSPSSLSASVGDRVTITCRASQSVSSAVAWYQQKPGKAPKLLIYSASSLYSGVPSRFSGSRSGTDFTLTISSLQPEDFATYYCQQYASWPITFGQGTKVEIKR
notes: yeast-display scFv
B7: EO_Q15 (scFv, V domains shown)
VH: EVQLVESGGGLVQPGGSLRLSCAASGFTISSSYIHWVRQAPGKGLEWVAYISPSYGSTSYADSVKGRFTISADTSKNTAYLQMNSLRAEDTAVYYCARELIEMTTDYWGQGTLVTVSS
VL: DIQMTQSPSSLSASVGDRVTITCRASQSVSSAVAWYQQKPGKAPKLLIYSASSLYSGVPSRFSGSRSGTDFTLTISSLQPEDFATYYCQQYSHWPITFGQGTKVEIKR
notes: yeast-display scFv
B8: EO_Q23 (scFv, V domains shown)
VH: EVQLVESGGGLVQPGGSLRLSCAASGFTISSSYIHWVRQAPGKGLEWVAYISPSYGSTSYADSVKGRFTISADTSKNTAYLQMNSLRAEDTAVYYCAREYVTMALDYWGQGTLVTVSS
VL: DIQMTQSPSSLSASVGDRVTITCRASQSVSSAVAWYQQKPGKAPKLLIYSASSLYSGVPSRFSGSRSGTDFTLTISSLQPEDFATYYCQQYSHWPETFGQGTKVEIKR
notes: yeast-display scFv
B9: EO_Q22 (scFv, V domains shown)
VH: EVQLVESGGGLVQPGGSLRLSCAASGFTISSSYIHWVRQAPGKGLEWVAYISPSYGSTSYADSVKGRFTISADTSKNTAYLQMNSLRAEDTAVYYCAREYVTMALDYWGQGTLVTVSS
VL: DIQMTQSPSSLSASVGDRVTITCRASQSVSSAVAWYQQKPGKAPKLLIYSASSLYSGVPSRFSGSRSGTDFTLTISSLQPEDFATYYCQQYSHWPITFGQGTKVEIKR
notes: yeast-display scFv
B10: EO_Q02 (scFv, V domains shown)
VH: EVQLVESGGGLVQPGGSLRLSCAASGFTISSSYIHWVRQAPGKGLEWVAYISPSYGSTSYADSVKGRFTISADTSKNTAYLQMNSLRAEDTAVYYCAREYTTMSIDYWGQGTLVTVSS
VL: DIQMTQSPSSLSASVGDRVTITCRASQSVSSAVAWYQQKPGKAPKLLIYSASSLYSGVPSRFSGSRSGTDFTLTISSLQPEDFATYYCQQYSAWPETFGQGTKVEIKR
notes: yeast-display scFv
B11: EO_Q03 (scFv, V domains shown)
VH: EVQLVESGGGLVQPGGSLRLSCAASGFTISSSYIHWVRQAPGKGLEWVAYISPSYGSTSYADSVKGRFTISADTSKNTAYLQMNSLRAEDTAVYYCARESVTMSADYWGQGTLVTVSS
VL: DIQMTQSPSSLSASVGDRVTITCRASQSVSSAVAWYQQKPGKAPKLLIYSASSLYSGVPSRFSGSRSGTDFTLTISSLQPEDFATYYCQQYSAWPITFGQGTKVEIKR
notes: yeast-display scFv
B12: EO_Q10 (scFv, V domains shown)
VH: EVQLVESGGGLVQPGGSLRLSCAASGFTISSSYIHWVRQAPGKGLEWVAYISPSYGSTSYADSVKGRFTISADTSKNTAYLQMNSLRAEDTAVYYCARELIEMTPDYWGQGTLVTVSS
VL: DIQMTQSPSSLSASVGDRVTITCRASQSVSSAVAWYQQKPGKAPKLLIYSASSLYSGVPSRFSGSRSGTDFTLTISSLQPEDFATYYCQQYSGWPITFGQGTKVEIKR
notes: yeast-display scFv
B13: EO_Q08 (scFv, V domains shown)
VH: EVQLVESGGGLVQPGGSLRLSCAASGFTISSSYIHWVRQAPGKGLEWVAYISPSYGSTSYADSVKGRFTISADTSKNTAYLQMNSLRAEDTAVYYCARELTEMTTDYWGQGTLVTVSS
VL: DIQMTQSPSSLSASVGDRVTITCRASQSVSSAVAWYQQKPGKAPKLLIYSASSLYSGVPSRFSGSRSGTDFTLTISSLQPEDFATYYCQQYSSWPITFGQGTKVEIKR
notes: yeast-display scFv
B14: EO_Q24 (scFv, V domains shown)
VH: EVQLVESGGGLVQPGGSLRLSCAASGFTISSSYIHWVRQAPGKGLEWVAYISPSYGSTSYADSVKGRFTISADTSKNTAYLQMNSLRAEDTAVYYCAREYVTMALDYWGQGTLVTVSS
VL: DIQMTQSPSSLSASVGDRVTITCRASQSVSSAVAWYQQKPGKAPKLLIYSASSLYSGVPSRFSGSRSGTDFTLTISSLQPEDFATYYCQQYSEWPETFGQGTKVEIKR
notes: yeast-display scFv
B15: EO_Q13 (scFv, V domains shown)
VH: EVQLVESGGGLVQPGGSLRLSCAASGFTISSSYIHWVRQAPGKGLEWVAYISPSYGSTSYADSVKGRFTISADTSKNTAYLQMNSLRAEDTAVYYCARELTTMTADYWGQGTLVTVSS
VL: DIQMTQSPSSLSASVGDRVTITCRASQSVSSAVAWYQQKPGKAPKLLIYSASSLYSGVPSRFSGSRSGTDFTLTISSLQPEDFATYYCQQYSHWPITFGQGTKVEIKR
notes: yeast-display scFv
B16: EO_Q07 (scFv, V domains shown)
VH: EVQLVESGGGLVQPGGSLRLSCAASGFTISSSYIHWVRQAPGKGLEWVAYISPSYGSTSYADSVKGRFTISADTSKNTAYLQMNSLRAEDTAVYYCARELTTMSIDYWGQGTLVTVSS
VL: DIQMTQSPSSLSASVGDRVTITCRASQSVSSAVAWYQQKPGKAPKLLIYSASSLYSGVPSRFSGSRSGTDFTLTISSLQPEDFATYYCQQYAKWPITFGQGTKVEIKR
notes: yeast-display scFv
B17: EO_Q09 (scFv, V domains shown)
VH: EVQLVESGGGLVQPGGSLRLSCAASGFTISSSYIHWVRQAPGKGLEWVAYISPSYGSTSYADSVKGRFTISADTSKNTAYLQMNSLRAEDTAVYYCAREEVTMTADYWGQGTLVTVSS
VL: DIQMTQSPSSLSASVGDRVTITCRASQSVSSAVAWYQQKPGKAPKLLIYSASSLYSGVPSRFSGSRSGTDFTLTISSLQPEDFATYYCQQYSHWPITFGQGTKVEIKR
notes: yeast-display scFv
B18: EO_Q04 (scFv, V domains shown)
VH: EVQLVESGGGLVQPGGSLRLSCAASGFTISSSYIHWVRQAPGKGLEWVAYISPSYGSTSYADSVKGRFTISADTSKNTAYLQMNSLRAEDTAVYYCARESVTMTKDYWGQGTLVTVSS
VL: DIQMTQSPSSLSASVGDRVTITCRASQSVSSAVAWYQQKPGKAPKLLIYSASSLYSGVPSRFSGSRSGTDFTLTISSLQPEDFATYYCQQYSDWPITFGQGTKVEIKR
notes: yeast-display scFv
B19: EO_Q06 (scFv, V domains shown)
VH: EVQLVESGGGLVQPGGSLRLSCAASGFTISSSYIHWVRQAPGKGLEWVAYISPSYGSTSYADSVKGRFTISADTSKNTAYLQMNSLRAEDTAVYYCARESITMTKDYWGQGTLVTVSS
VL: DIQMTQSPSSLSASVGDRVTITCRASQSVSSAVAWYQQKPGKAPKLLIYSASSLYSGVPSRFSGSRSGTDFTLTISSLQPEDFATYYCQQYSHWPITFGQGTKVEIKR
notes: yeast-display scFv
B20: EO_Q14 (scFv, V domains shown)
VH: EVQLVESGGGLVQPGGSLRLSCAASGFTISSSYIHWVRQAPGKGLEWVAYISPSYGSTSYADSVKGRFTISADTSKNTAYLQMNSLRAEDTAVYYCARESITMSPDYWGQGTLVTVSS
VL: DIQMTQSPSSLSASVGDRVTITCRASQSVSSAVAWYQQKPGKAPKLLIYSASSLYSGVPSRFSGSRSGTDFTLTISSLQPEDFATYYCQQYSSWPITFGQGTKVEIKR
notes: yeast-display scFv
B21: EO_Q05 (scFv, V domains shown)
VH: EVQLVESGGGLVQPGGSLRLSCAASGFTISSSYIHWVRQAPGKGLEWVAYISPSYGSTSYADSVKGRFTISADTSKNTAYLQMNSLRAEDTAVYYCAREEVTMSIDYWGQGTLVTVSS
VL: DIQMTQSPSSLSASVGDRVTITCRASQSVSSAVAWYQQKPGKAPKLLIYSASSLYSGVPSRFSGSRSGTDFTLTISSLQPEDFATYYCQQYAEWPITFGQGTKVEIKR
notes: yeast-display scFv

Each binder was assayed against T1, HLA-A*01:01 in complex with the BTK peptide … conjugated with Ibrutinib (human, ibrutinib covalently bound to Cys) (assay: phage display selection; MBBA).
T1 construct: also called HLA-A*01:01_BTK-Ibrutinib
B1: binds.

The binders below were run against T2, HLA-A*02:01 in complex with the EGFR peptide … conjugated with osimertinib (human, osimertinib covalently bound to Cys) (assay: yeast display).
T2 construct: also called HLA-A*02:01_EGFR-osimertinib; osimertinib-EGFR/HLA-A*02
B2: binds. B3: binds. B4: binds. B5: binds. B6: binds. B7: binds. B8: binds. B9: binds. B10: binds. B11: binds. B12: binds. B13: binds. B14: binds. B15: binds. B16: binds. B17: binds. B18: binds. B19: binds. B20: binds. B21: binds.
